Assay results published in paper PMC11094088, “Molecular mechanism of Oxr1p mediated disassembly of yeast V-ATPase” (EMBO Reports, 2024).

B1: Oxidation Resistance protein 1 (Oxr1p), recombinant (natural protein, yeast, UniProt Q08952 1-273, looked up)
chain: MFGVKDAIFKIKRSIAGTDSSDSTAYTTASESSPQLKDSHNPFRNKTTSERTIVEEGSLPPVRLNGYLPSTKNKLLTPEMCDEIRTLMPTRIQLYTEWNLLYSLEQHGSSLHSLYSNVAPDSKEFRRVGYVLVIKDRKNGIFGAYSNEAFHPNEHRQYTGNGECFLWKLDKVPDVNISEKEESEQEGKEGKEEGDKEERWRFSGYPYTGVNEFAIYCTSEFLSMGAGDGHYGLLCDDGLLHGVSNPCQTYGNEVLSKEGKKFSIVALEVWRVG
notes: Oxr1p, yeast TLDc domain protein; construct as described in Khan et al, 2022; also called recombinant Oxr1p; source: E. coli BL21DE3, purified (Ni-NTA, Superdex-75 SEC); not shown: 7xHis, N-terminal, kept

Experiments:
[1] = biological target: recombinant N-terminally 7×His tagged biotinylated Oxr1p (bio-Oxr1p) (yeast) (UniProt Q08952); test: BLI; bio-Oxr1p (10 µg/ml) immobilised on streptavidin biosensors, V1ΔH^(ΔOxr1) with or without recombinant subunit C in solution; 20 mM Tris-HCl pH 7.0, 0.5 mM EDTA, β-mercaptoethanol, 5.0 mg/ml BSA; 23 °C; global fitting
[2] = biological target: T1, V1 subunit B (the B subunit of the open catalytic site), in the purified V-ATPase (yeast (endogenous), UniProt P16140 1-517); test: cryo-EM structure; V-ATPase in lipid nanodiscs (~1-2 mg/ml) vitrified with a twofold molar excess of Oxr1p, no nucleotide; 3-D classes at ~8.2 Å; Oxr1p density in the rotary state 1 class (~31% of particles); conditions: both partners purified
T1 construct: V1 subunit B, yeast; source: endogenous, part of the purified yeast V-ATPase in lipid nanodiscs

[3] = biological target: wild-type yeast V-ATPase reconstituted into lipid nanodiscs (V1VoND) (yeast (endogenous) | yeast) (UniProt P16140)
[4] = biological target: V1ΔH^(ΔOxr1) in the presence of recombinant subunit C (yeast (endogenous) | yeast) (UniProt P16140); test: BLI; α-mouse IgG Fc capture biosensors loaded with α-MBP antibody, then MBP-HWT or MBP-H_(chim) (5 µg/ml); 40 nM V1ΔH in solution with buffer, Oxr1p (equimolar), subunit C (twofold molar excess) or Oxr1p + subunit C; TBSE plus 0.5 mg/ml BSA; 23 °C
[5] = biological target: wild-type yeast V-ATPase reconstituted into lipid nanodiscs (V1VoND) (yeast (endogenous) | yeast) (UniProt P16140); remark: listed apart in the source

T1 sequence (P16140 whole entry): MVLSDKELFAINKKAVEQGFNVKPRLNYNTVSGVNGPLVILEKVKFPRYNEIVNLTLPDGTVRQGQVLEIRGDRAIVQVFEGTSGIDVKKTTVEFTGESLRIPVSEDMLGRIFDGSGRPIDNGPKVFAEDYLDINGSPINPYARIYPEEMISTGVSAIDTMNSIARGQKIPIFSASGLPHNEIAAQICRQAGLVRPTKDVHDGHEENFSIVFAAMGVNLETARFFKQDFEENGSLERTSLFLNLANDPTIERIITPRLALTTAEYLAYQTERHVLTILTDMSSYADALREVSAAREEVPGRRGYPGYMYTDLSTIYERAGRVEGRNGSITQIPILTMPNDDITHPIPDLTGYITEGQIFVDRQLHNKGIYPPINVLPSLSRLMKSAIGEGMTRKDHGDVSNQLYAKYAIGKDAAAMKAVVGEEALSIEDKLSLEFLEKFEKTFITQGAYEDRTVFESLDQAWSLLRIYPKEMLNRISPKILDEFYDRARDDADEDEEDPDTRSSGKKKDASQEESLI

Molecule | Kd [1] [nM] | binding result [2] | loss of ATPase activity of purified V-ATPase after 30 min with a twofold molar excess of Oxr1p alone [3] [%] | percent reduction of V1ΔH binding to immobilised H (chim) (subunit C and Oxr1p, against Oxr1p only) [4] [%] | percent reduction of V1ΔH binding to immobilised wild-type H (subunit C and Oxr1p, against Oxr1p only) [4] [%] | ATPase activity of purified V-ATPase in nanodiscs left after incubation with a twofold molar excess of Oxr1p, 30 min to 16 h, relative to the starting activity [5] [%]
V1ΔH^(ΔOxr1) in the presence of recombinant subunit C (from UniProt P16140 1-517; P32610 1-256; P22203 1-233; P39111 1-118; P48836 1-114; P31412 1-392) (complex) | 7 |  |  |  |  | 
V1ΔH, V1 subcomplex without subunit H (FLAG-tagged subunit G), from the oxr1Δvma13Δ background (from UniProt P16140 1-517; P32610 1-256; P22203 1-233; P39111 1-118; P48836 1-114) | 67 |  |  |  |  | 
B1 |  | binds | 30 | 25 | 60 | 70
